Results published in article PMC8809517, “Cofactor-independent RNA editing by a synthetic S-type PPR protein”.
Numbering of substitutions follows the chain as printed.

T1: GFP-9S library array, motif 4 ND N98G;D124V (synthetic construct, N98G;D124V)
T1 chain: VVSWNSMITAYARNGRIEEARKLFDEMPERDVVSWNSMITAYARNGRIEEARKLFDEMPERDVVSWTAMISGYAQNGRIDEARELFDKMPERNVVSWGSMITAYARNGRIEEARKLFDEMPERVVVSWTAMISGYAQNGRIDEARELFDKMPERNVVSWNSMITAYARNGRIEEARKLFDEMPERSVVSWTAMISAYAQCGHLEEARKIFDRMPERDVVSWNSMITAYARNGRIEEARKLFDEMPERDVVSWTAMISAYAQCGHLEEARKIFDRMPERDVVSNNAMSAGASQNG

T2: GFP-9S library array, motif 4 ND N98C;D124A (synthetic construct, N98C;D124A)
T2 chain: T1 chain with G98C, V124A

T3: GFP-9S library array, motif 4 ND N98T;D124T (synthetic construct, N98T;D124T)
T3 chain: T1 chain with G98T, V124T

T4: GFP-9S library array, motif 4 ND N98T (synthetic construct, N98T)
T4 chain: T1 chain with G98T, V124D

T5: GFP-9S library array, motif 4 ND N98V;D124E (synthetic construct, N98V;D124E)
T5 chain: T1 chain with G98V, V124E


Assays:
Experiment in all cases: high-throughput RNA pulldown from lysate on Ni-NTA beads; HRP: 50 mM Tris pH 8, 150 mM NaCl, 1 mM beta-mercaptoethanol, 50 ug/ml BSA, 3 ug/ml yeast RNA, 0.5% heparin; ITC and FP: Tris pH 8, 200 mM KCl, 5% glycerol; MST: 50 mM Tris pH 8, 200 mM NaCl, 1 mM DTT, BSA, heparin, 0.05% Tween 20
Conditions in all cases: tags: N-terminal His-eGFP
[1] = target: T1, GFP-9S library array, motif 4 ND …
[2] = target: T2, GFP-9S library array, motif 4 ND …
[3] = target: T3, GFP-9S library array, motif 4 ND …
[4] = target: T4, GFP-9S library array, motif 4 ND N98T
[5] = target: T5, GFP-9S library array, motif 4 ND …

Binder | Kd ([1]; label: 5' IRDye 800CW) | Kd ([2]; label: 5' IRDye 800CW) | Kd ([3]; label: 5' IRDye 800CW) | Kd ([4]; label: 5' IRDye 800CW) | Kd ([5]; label: 5' IRDye 800CW) | Kd ([1]; label: 5' Cy5) | Kd ([2]; label: 5' Cy5) | Kd ([3]; label: 5' Cy5) | Kd ([4]; label: 5' Cy5) | Kd ([5]; label: 5' Cy5)
AUUAUACGUGA (ssRNA) [IR-rpoA-U] | 234 nM | 159 nM | 63.1 nM | 23 nM | 244 nM | – | – | – | – | –
AUUACACGUGA (ssRNA) [Cy5-rpoA] | – | – | – | – | – | 119 nM | 114 nM | 83.1 nM | 97.5 nM | 287 nM
AUUAGACGUGA (ssRNA) [Cy5-rpoA-G] | – | – | – | – | – | 118 nM | 92.3 nM | 81.4 nM | 5.06 nM | 167 nM
AUUAAACGUGA (ssRNA) [IR-rpoA-A] | 313 nM | 98.2 nM | 18.3 nM | 91.7 nM | 168 nM | – | – | – | – | –
